In the nanobody polyreactivity screen of Harvey et al. (2022):

Test: yeast display, Sf9 membrane polyspecificity reagent, FACS + sequencing; frameworks hold sequencing errors
In short: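 Synthetic nanobody libraries on Saccharomyces cerevisiae BJ5465 were galactose-induced for 36–48 hours, stained 1 hour at 4 °C with 10% biotinylated, detergent-solubilized Sf9 membrane reagent and enriched on streptavidin microbeads. FACS then separated cells into low and high (top ~1%) gates by anti-HA (expression) and streptavidin (reagent binding) fluorescence. Genes were colony-PCR amplified, MiSeq 2 × 250 sequenced and CDR-length filtered. A clone's polyreactivity label is that of its gate of origin.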

Sequence	polyreactivity (PSR sort gate)
QVQLVESGGGLVQAGGSLRLSCAASGRFLVLNAMGWYRQAPAKERELVADLTSVGSTYYADSVKGRFTISRDNAKNTVDLQMNSLKPEDTAVYYFAADWNTYPDYQQSYFVSYEYNYWGQGTQVTVSS	low polyreactivity
QVQLVESGGGLVQAGGSLRLSCAASGRICPKKGMGWYRQAPWKERELVAAITSGTSTYYADSVKGRFTISRDNAKNTVYLQMNSLKPEDTAVYYCNAVHARYRCQGDYWGQGTQVTVSS	low polyreactivity
QVQLVESGGGLVQAGGSLRLSCAASGRICVYYAMGWYRQAPGKEREFVAAISWSGGSTYYADSVKGRFTISRDNAKNTVYLQMNSLKPEDTAVYYCAADVPWTVYYRWYDYWGQGTLVTVSS	low polyreactivity
QVQLVESGGGLVQAGGSLRLSCAASGRIDAYTMGWYRQAPGKERELVAAISTSTSNTYYADSVKGRFTISRDNAKNTVYLQMNSLKPEDTAVYYCDEAYYSPWWGYYWGQGTQVTVSS	low polyreactivity
QVQLVESGGGLVQAGGSLRLSCAASGRIDHNAMDWYRQAPGKERELVAAITWSGGGTYYADSVKGRFTISRDNAKNTVYLQMNSLKPEDTAVYYCNVRRAFSGWRGYDYWGQGTQVTVSS	high polyreactivity
QVQLVESGGGLVQAGGSLRLSCAASGRIDLYNDMGWYRQAPGKERELVAAITWRSGSTYYADSVKGRFTFSRDNAKNTFYCQMNSLNPEDTAVYYCAKRGSGYKQDFKSYSGHYWGHGTQVTVSS	high polyreactivity
QVQLVESGGGLVQAGGSLRLSCAASGRIFAAYAMGWYRQAPGKERELVAAITRRGSTYYADSVKGRFTISRDNAKNTVYLQMNSLKPEDTAVYYCNKVPLFQYSTAWYDYWGQGTQVTVSS	high polyreactivity
QVQLVESGGGLVQAGGSLRLSCAASGRIFAFYALGLYRQAPGKEREFVAAITYSGGNTNYADSVKGRFTISRDNAKNTVYLQMNSLKPEDTAVYYCAADLVYGVYYQEDYWGQGTQVTVSS	low polyreactivity
QVQLVESGGGLVQAGGSLRLSCAASGRIFAGYAMGWYRQAPGKERELVAAIRSGGSTNYADSVKGRFTISRDNAKNTVYLQMNSLKPEDTAVYYCAAETPVIPWDEMDYWGQGTQVTVSS	low polyreactivity
QVQLVESGGGLVQAGGSLRLSCAASGRIFAGYAMGWYRQAPGKERELVAAISSGGGSTYYADSVKGRFTISRDNAKNTVYLQMNSLKPEDTAVYYCARDSYPHGRARFDYWGQGTQVTVSS	high polyreactivity
QVQLVESGGGLVQAGGSLRLSCAASGRIFAGYAMGWYRQAPGKERELVAAITGTGDRTYYADSVKGRFTISRDNAKNTVYLQMNSLKPEDTAVYYCAAAYGAYYPWGYDYWGQGTQVTVSS	low polyreactivity
QVQLVESGGGLVQAGGSLRLSCAASGRIFAKNAMGWYRQAPGKERELVAAINHSGGSTYYADSVKGRFTISRDNAKNTVYLQMNSLKPEDTAVYYCAALGSGVPRYYYWGQGTQVTVSS	high polyreactivity
QVQLVESGGGLVQAGGSLRLSCAASGRIFAKNTMGWYRQAPGKERELVAAITWSSGNTDYADSVKGRFTISRDNAKNTVYLQMNSLKPEDTAVYYCNARFYYRPLRFSYDYWGQGTQVTVSS	high polyreactivity
QVQLVESGGGLVQAGGSLRLSCAASGRIFAKYAMGWYRQAPGKERELVAAISLSGGRTYYADSVKGRFTISRDNAKNTVYLQMNSLKPEDTAVYYCAAEFYPIRYYGGYDYWGQGTQVTVSS	low polyreactivity
QVQLVESGGGLVQAGGSLRLSCAASGRIFALNALGWYRQAPGKERELVATFRWSGGSTYYADSVKGRFTISRDYAKNTVYLQMNSLKPEDTAVYYCAAYSGNRRTYDYWGHGTQVTVSS	high polyreactivity
QVQLVESGGGLVQAGGSLRLSCAASGRIFALNVMGWYRQAPGKERELVAAITWSSGRTYYADSVKGRFTISRDNAKNTVYLQMNSLKPEDTAVYYCAAAFRPRAIELSYYYWGQGTQVTVSS	high polyreactivity
QVQLVESGGGLVQAGGSLRLSCAASGRIFAPYDMGWYRQAPGKERELVASITSGGSTNYTDSVKGRFTISRVNAKNTVYLQMNSLIPEDTAVYYCNTAKISEPIDPRQRVWGRTYDYWGQGTQVTVSS	low polyreactivity
QVQLVESGGGLVQAGGSLRLSCAASGRIFAQYAMGWYRQAPGKERELVAAISRSGGTTYYADSVKGRFTISRDNAKNTVYLQMNSLKPDDTAVYYCAASLRYLYYYWGQGTQVTVSS	high polyreactivity
QVQLVESGGGLVQAGGSLRLSCAASGRIFAQYAMGWYRQAPGKERELVADISSGVRTYADSVKVRFTISRDNAKNTVYLQMNSLKPEDTAVYYCNAYYIIFTRNDYWGQGTQVTVSS	low polyreactivity
QVQLVESGGGLVQAGGSLRLSCAASGRIFARNAMGWYRQAPGKERELVADITSTGSTNYADSVKGRFTISRDNAMITVYLQMNSLKPEDTAVYYCAADYYTGYVWEDYYWGQGTQVTVSS	low polyreactivity
QVQLVESGGGLVQAGGSLRLSCAASGRIFARYAMGWYRQAPGKERELVAAITKSVGSTYYADSVKGRFTISRDNAKNTVYLQMNSLKPEDTAVYYCNAVARGYGYDYWGQGTQVTVSS	high polyreactivity
QVQLVESGGGLVQAGGSLRLSCAASGRIFARYAMGWYRQAPGTERELVASITRSGGSTYYADSVKGRFTISRDNAKNTVYLQMNSLKPEDTAVYYCAARYGRVRDVIPYDYWGQGTQVTVSS	high polyreactivity
QVQLVESGGGLVQAGGSLRLSCAASGRIFASYAMGWYRQAPGKERELVAAISLSGGSTYYADSVKGRFTISRDNAKNTVYLLMNSLKPEDNAVYYCNRLSNNREYVYWGQGTQLTVSS	high polyreactivity
QVQLVESGGGLVQAGGSLRLSCAASGRIFASYAMGWYRQAPGKERELVAAITRSGGRTYYADSVKGRFTISRDNAKNTVYLQMNSLKPADTAVDYCAVDTVTRTVLVYGDRNDSWGQGTQVTVSS	high polyreactivity
QVQLVESGGGLVQAGGSLRLSCAASGRIFASYTMGWYRQAPGKETELVAAISWRGDGTYYADSVKGRFTISRDYAKNTVYLQMNSLKPEDTAVYYCAADYVYYYHEYDYWGQGTQVTVSS	low polyreactivity
QVQLVESGGGLVQAGGSLRLSCAASGRIFASYVMGWYRQAPGKERELVAAISYGGSRTYYADSVKGRFTISRDNAKNTVYLQMNSLKPEDTAVYYCNARSKFYYHYWMDYWGQGTQVTVSS	high polyreactivity
QVQLVESGGGLVQAGGSLRLSCAASGRIFAVNAMGLYRQAPGKERELVARIRRIGGSTYYADSVKGRFTISRDNAKNTVYLQMNSQKPEDTAVYYCAAVSRVWLNLYNYWGQGTQVTVSS	high polyreactivity
QVQLVESGGGLVQAGGSLRLSCAASGRIFAVNAMGWYRQAPGKERELVASIRWSGGSTYYADSVKGRFTISRDNAKNTVYLQMNSLKPEDTAVYYCAAVIYLWGQGTQVTVSS	high polyreactivity
QVQLVESGGGLVQAGGSLRLSCAASGRIFAVNAMGWYRQAPGKERELVASIRWSGGSTYYADSVKGRFTISRDNAKNTVYLQMNTLKPEDTAVYYCNKVRGKTYYGEGDYWGQGTQVTVSS	high polyreactivity
QVQLVESGGGLVQAGGSLRLSCAASGRIFAVNAMGWYRQAPGKERELVATINSGGNTNYADSVKGRFTISRDNAKNTVYLQMNSLKPVDTAVYYCAARAFSAWLEMDYWGQGTQVTVSS	low polyreactivity
